Target: T1, human adenosine A2A receptor (A2aR) (human, UniProt P29274 1-412)
T1 construct: Assays used HEK293 cells stably overexpressing human A2aR (BPS Bioscience 79381), human A2aR-expressing CHO cells, or endogenous A2aR on human PBMC; also called human A2aR; hA2aR
Experiment: flow cytometry, HEK293-hA2aR cells, supernatant 1 ug/ml

T1 sequence (P29274 whole entry): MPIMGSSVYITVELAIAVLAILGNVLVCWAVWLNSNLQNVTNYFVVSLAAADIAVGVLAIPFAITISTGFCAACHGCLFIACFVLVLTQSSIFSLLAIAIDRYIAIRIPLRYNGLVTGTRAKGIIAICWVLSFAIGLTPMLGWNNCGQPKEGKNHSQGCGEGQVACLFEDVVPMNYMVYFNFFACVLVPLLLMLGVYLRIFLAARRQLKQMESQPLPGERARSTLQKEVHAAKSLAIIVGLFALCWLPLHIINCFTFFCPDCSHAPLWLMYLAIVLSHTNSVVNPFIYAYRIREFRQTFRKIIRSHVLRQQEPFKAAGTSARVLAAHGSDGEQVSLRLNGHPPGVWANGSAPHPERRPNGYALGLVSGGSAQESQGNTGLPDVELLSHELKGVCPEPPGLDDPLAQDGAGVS

| MFI [MFI] | Binder |
| --- | --- |
| 1420 | Hu3F6-H1/Hu3F6-L8 (antibody, human IgG1, V domains shown, Human IgG1 FES (L234F, L235E, P331S) and human Ig kappa constant domains) VH: QVQLVQSGAEVKKPGASVKVSCKASGFAFTSYWMNWVRQAPGQGLEWMGRIDPSDSEAHYHHKFWGRVTMTRDTSTSTVYMELSSLRSEDTAVYYCLRSLYGKGDYWGHGTTVTVSS VL: DVVMTQSPLSLPVTPGEPASISCRSSQSLVHRNGNTYLEWYLQKPGQSPQLLIYKVSNRFSGVPDRFSGSGSGTDFTLKISRVEAEDVGVYYCYQGSHVPLTFGGGTKVEIK |
| 14 | Hu3F6-H1/Hu3F6-L2 (antibody, human IgG1, V domains shown, Human IgG1 FES (L234F, L235E, P331S) and human Ig kappa constant domains) VH: QVQLVQSGAEVKKPGASVKVSCKASGFAFTSYWMNWVRQAPGQGLEWMGRIDPSDSEAHYHHKFWGRVTMTRDTSTSTVYMELSSLRSEDTAVYYCLRSLYGKGDYWGHGTTVTVSS VL: DVVMTQSPLSLPVTLGQPASISCRSSQSLVHRNGNTYLEWYQQRPGQSPRRLIYKVSNRFSGVPDRFSGSGSGTDFTLKISRVEAEDVGVYYCYQGSHVPLTFGGGTKVEIK |
| 1580 | Hu3F6-H2/Hu3F6-L6 (antibody, human IgG1, V domains shown, Human IgG1 FES (L234F, L235E, P331S) and human Ig kappa constant domains) VH: EVQLVQSGAEVKKPGASVKVSCKTSGFAFTSYWMNWVRQAPGQGLEWMGRIDPSDSEAHYHHKFWGRVTMTVDTSTSTVYMELSSLRSEDTAVYYCLRSLYGKGDYWGHGTTVTVSS VL: DIVMTQTPPSLPVNPGEPASISCRSSQSLVHRNGNTYLEWYLQKPGQSPQLLIYKVSNRFSGVPDRFSGSGSGSDFTLKISWVEAEDVGVYYCYQGSHVPLTFGGGTKVEIK |
| 1320 | Hu3F6-H1/Hu3F6-L4 (antibody, human IgG1, V domains shown, Human IgG1 FES (L234F, L235E, P331S) and human Ig kappa constant domains) VH: QVQLVQSGAEVKKPGASVKVSCKASGFAFTSYWMNWVRQAPGQGLEWMGRIDPSDSEAHYHHKFWGRVTMTRDTSTSTVYMELSSLRSEDTAVYYCLRSLYGKGDYWGHGTTVTVSS VL: DIVMTQTPLSLSVTPGQPASISCRSSQSLVHRNGNTYLEWYLQKPGQSPQLLIYKVSNRFSGVPDRFSGSGSGTDFTLKISRVEAEDVGVYYCYQGSHVPLTFGGGTKVEIK |
| 1500 | Hu3F6-H1/Hu3F6-L5 (antibody, human IgG1, V domains shown, Human IgG1 FES (L234F, L235E, P331S) and human Ig kappa constant domains) VH: QVQLVQSGAEVKKPGASVKVSCKASGFAFTSYWMNWVRQAPGQGLEWMGRIDPSDSEAHYHHKFWGRVTMTRDTSTSTVYMELSSLRSEDTAVYYCLRSLYGKGDYWGHGTTVTVSS VL: DVVMTQTPLSLSVTPGQPASISCRSSQSLVHRNGNTYLEWYLQKPGQSPQLLIYKVSNRFSGVPDRFSGSGSGTDFTLKISRVEAEDVGVYYCYQGSHVPLTFGGGTKVEIK |
| 1600 | Hu3F6-H1/Hu3F6-L3 (antibody, human IgG1, V domains shown, Human IgG1 FES (L234F, L235E, P331S) and human Ig kappa constant domains) VH: QVQLVQSGAEVKKPGASVKVSCKASGFAFTSYWMNWVRQAPGQGLEWMGRIDPSDSEAHYHHKFWGRVTMTRDTSTSTVYMELSSLRSEDTAVYYCLRSLYGKGDYWGHGTTVTVSS VL: DVVMTQSPLSLPVTLGQPASISCRSSQSLVHRNGNTYLEWYQQRPGQSPRLLIYKVSNRFSGVPDRFSGSGSGTDFTLKISRVEAEDVGVYYCYQGSHVPLTFGGGTKVEIK |
| 313 | Hu3F6-H1/Hu3F6-L6 (antibody, human IgG1, V domains shown, Human IgG1 FES (L234F, L235E, P331S) and human Ig kappa constant domains) VH: QVQLVQSGAEVKKPGASVKVSCKASGFAFTSYWMNWVRQAPGQGLEWMGRIDPSDSEAHYHHKFWGRVTMTRDTSTSTVYMELSSLRSEDTAVYYCLRSLYGKGDYWGHGTTVTVSS VL: DIVMTQTPPSLPVNPGEPASISCRSSQSLVHRNGNTYLEWYLQKPGQSPQLLIYKVSNRFSGVPDRFSGSGSGSDFTLKISWVEAEDVGVYYCYQGSHVPLTFGGGTKVEIK |
| 2000 | Hu3F6-H6/Hu3F6-L8 (antibody, human IgG1, V domains shown, Human IgG1 FES (L234F, L235E, P331S) and human Ig kappa constant domains) VH: EVQLVQSGAEVKKPGESLRISCKASGFAFTSYWMNWVRQMPGKGLEWIGRIDPSDSEAHYHHKFWGHATLSVDKSSSTVYLQWSSLKASDTAMYYCLRSLYGKGDYWGHGTTVTVSS VL: DVVMTQSPLSLPVTPGEPASISCRSSQSLVHRNGNTYLEWYLQKPGQSPQLLIYKVSNRFSGVPDRFSGSGSGTDFTLKISRVEAEDVGVYYCYQGSHVPLTFGGGTKVEIK |
| 290 | Hu3F6-H1/Hu3F6-L7 (antibody, human IgG1, V domains shown, Human IgG1 FES (L234F, L235E, P331S) and human Ig kappa constant domains) VH: QVQLVQSGAEVKKPGASVKVSCKASGFAFTSYWMNWVRQAPGQGLEWMGRIDPSDSEAHYHHKFWGRVTMTRDTSTSTVYMELSSLRSEDTAVYYCLRSLYGKGDYWGHGTTVTVSS VL: DVVMTQTPPSLPVNPGEPASISCRSSQSLVHRNGNTYLEWYLQKPGQSPQLLIYKVSNRFSGVPDRFSGSGSGSDFTLKISWVEAEDVGVYYCYQGSHVPLTFGGGTKVEIK |
| 1180 | Hu3F6-H2/Hu3F6-L7 (antibody, human IgG1, V domains shown, Human IgG1 FES (L234F, L235E, P331S) and human Ig kappa constant domains) VH: EVQLVQSGAEVKKPGASVKVSCKTSGFAFTSYWMNWVRQAPGQGLEWMGRIDPSDSEAHYHHKFWGRVTMTVDTSTSTVYMELSSLRSEDTAVYYCLRSLYGKGDYWGHGTTVTVSS VL: DVVMTQTPPSLPVNPGEPASISCRSSQSLVHRNGNTYLEWYLQKPGQSPQLLIYKVSNRFSGVPDRFSGSGSGSDFTLKISWVEAEDVGVYYCYQGSHVPLTFGGGTKVEIK |
| 1660 | Hu3F6-H3/Hu3F6-L6 (antibody, human IgG1, V domains shown, Human IgG1 FES (L234F, L235E, P331S) and human Ig kappa constant domains) VH: EVQLVQSGAEVKKPGASVKVSCKTSGFAFTSYWMNWVRQAPGQGLEWIGRIDPSDSEAHYHHKFWGRATLTVDTSSSTVYMELSSLRSEDTAVYYCLRSLYGKGDYWGHGTTVTVSS VL: DIVMTQTPPSLPVNPGEPASISCRSSQSLVHRNGNTYLEWYLQKPGQSPQLLIYKVSNRFSGVPDRFSGSGSGSDFTLKISWVEAEDVGVYYCYQGSHVPLTFGGGTKVEIK |
